Data reported in patent publication US7722863B2, “Use of granzyme b as an hsp70/hsp70 peptide dependent inducer of apoptosis in tumor cells” (Multimmune GmbH, priority 2002, dated 2010).

Target: T1, Hsp70-peptide TKD (Homo sapiens, UniProt P0DMV8)
T1 construct: Hsp70-peptide TKD (TKDNNLLGRFELSG (SEO ID NO:1), aa450-463, Bachem, Bubendorf, Switzerland); purchased Bachem
Test: Affinity chromatography of YT cell lysate, Western blot of eluates
Assay type: binding
Details: Western blot with mAb 2C5, fraction F3
Description: Bovine serum albumine (BSA, 1 mg/ml, Sigma-Aldrich, Steinheim, Germany), 1 mg/ml lyophylized, recombinant human Hsp70-protein (Stressgen, British Columbia, Canada) or 2 mg/mi Hsp70-peptide TKD (TKDNNLLGRFELSG (SEO ID NO:1), aa450-463, Bachem, Bubendorf, Switzerland) were incubated with equilibrated AminoLink agarose beads (Pierce, Rockford, USA) in 2 ml for 6 h, together with the reductant NaCNBH3. Binding capacity of BSA, Hsp70-protein and Hsp70-peptide TKD was greater 95%. Following removal of uncoupled material by extensive washing with Tris-buffer and quenching of non-reactive groups, cell lysates were administered to the BSA, Hsp70-protein and Hsp70-peptide TKD conjugated columns for 1 h.
After washing with 10 column volumes of 20 mM Tris buffer, bound proteins were eluted with 3 M sodium chloride in 20 mM Tris buffer, in 5 fractions. Each fraction was subjected to a 10% SDS-PAGE and blotted to PVDF membranes.
Following blocking in skim-milk (0.1%) and incubation with mAb directed against granzyme B 2C5 (IgG2a, Becton Dickinson, Heidelberg, Germany), at 4° C., for 5 h, Western blots were washed and incubated with a secondary mouse anti-IgG HRP Ab (Dianova, Hamburg, Germany), for 1 h. Proteins were detected using the ECL kit (Amersham Bioscience) for 5 sec. […]

granzyme B
granzyme B in YT cell eluates from Hsp70-peptide (TKD) column: dominant 32 kDa granzyme B protein band
